In the DeepSol protein solubility set:

Assay: soluble on expression in E. coli; label from the status in PepcDB or PDB records
For “MLDINLFREEKGNNPEIIRESQRRRFASVEIVDEIIKLDKEWRQRQFEVDSFRKEFNKLNKQVAQLKIKKEDASEIIQQTEKNKQDSTAKEAEVREAYAALKAKLEQVGNLVHDSVPVDKDEANNLVIKLWGEKRFSTPGLKLKNHVDLVELLGIADTKRGAEIAGARGFFLKGDGLMLNQALINFGLTFLKKRGFTGLQPPFFMRKDVMAKCAQLAQFDEELYKVTGEGDDKYLIATAEQPLCAYHIDEWIHPTELPLRYAGYSSCFRKEAGSHGRDTLGIFRVHQFEKIEQFCITGPNENASWEMLDEMMKNSEDFYQALKLPYQIVSIVSGALNDAAAKKYDLEAWFPSSETFRELVSCSNCTDYQARRLEIRYGQKKSNEQTKQYVHMLNSTLTATERTICCILENYQREDGVDIPEVLQPFMGGETFLPFKAKPVVADTKGKKSKA”, the “soluble on expression in E. coli” value was “soluble”.
In the case of “GMLFESINTGCLDGNDTPWMPFAPYSNDVMVKYFKIDPVRGETITLLKAPAGMEMPRHHHTGTVIVYTVQGSWRYKEHDWVAHAGSVVYETASTRHTPQSAYAEGPDIITFNIVAGELLYLDDKDNIIAVENWKTSMDRYLNYCKAHGIRPKDLSTFEG”, the “soluble on expression in E. coli” value is reported as “soluble”.
In the case of “MGSDKIHHHHHHMRRSDGRLLKSLSPFVRIIPHIMTKRNDAQNFYKQVVAVDKIDQYIKEKKDQGIRLNYLHLFIAVYVRVLAQRPQLNRFIMNNKIYTRYDIRISMAIKRLLKDDGEETTVKFLFSGLESIEEIVKIVDQTIEEGCAAGAANEVDTIAQRIMALPNSQVKLLVGTLKWMDRHNLLPKKIIEASPFHTSLFFTYLKSINLDFIYHHLYDFGTTGIFVALGKSKKLPVVEEDQVVVKKCCEIGYVLDERICDGLYYSNSFKLVKKYLANPYLLDERLEKVEEDVN”, the “soluble on expression in E. coli” value is reported as “not soluble”.
With “MAADESYPSVKERAFFQGLPFDYAVVFDNALIDRLFSRLRQERALVEDGLLARPDHRPWRLGALITEADTLDRRLSEQIRCLSGQSLPVASIALVTATTEAREAVSLWASVTCPPNVVVTPDPRAWMAEADLDLVVVFAPGALAHPGLFAALGRALQRDGADFAVWNHLLVRRRAEAPGQDITYLRCPDPTRQPVALAHMEAAGPAWAATPRLFETIKGDLGKALIGMARHPLSIALLRGKPKVVRLNEFLGACRVDSLGTPPWPRQSALVEAYGAALEDETFRLEIDPAHPTQPIRLTPRRRAHSIDIVINFRDKPELTLAAMGSIYAQTTTARVSLFLIDNQSTPAARAAIDAEAARAPAGIAVRVLSYDRPFNHSAQTNLGAAAGNGEALVFMSNDCALVDPGALDEMAAWALAPGVGTVGVRLETAEGRLACSGICALYPDHDFHPIVAEGFDQLGAGLNRETFANTFACACLARAVFRQAGPLDAIGFPIGLNDVDYCLRLRERGLRHLYLGAFLARHQALGSRPASDDGAQSAFLRQTYGHLLFDKEYMLEYDFLRQFTAAKLRQDIRSQRDKTTTVLEHHHHHH” the “soluble on expression in E. coli” value was “not soluble”.
In the case of “MMFPAKIISLRGGATEAIVSADLDRKTELAQETATRWFERRLSLRSPLDPPLPERPGRPEKPELVPPTAVERRSLHSVKGRIALLHAIAHIELNAVDLALDIVARYASEPVPHSFFDGWMQVAFEEAKHFRLVRDRLVSLGADYGDLPAHDGLWQAAHSTRNDLTARLAVVPLILEARGLDVTPSLQAKMRETGDLESAAVLDVIYNDEKGHVAIGAKWFRFLCAREKKDPAATFRQLVRSNFRGPLKPPFNDLARAEAGLTPSFYRSLTSVSHSLEHHHHHH”, the “soluble on expression in E. coli” value is reported as “not soluble”.
With “MHHHHHHMSWNHQSVEIAVRRTTVPSPNLPPGFDFTDPAIYAERLPVAEFAELRSAAPIWWNGQDPGKGGGFHDGGFWAITKLNDVKEISRHSDVFSSYENGVIPRFKNDIAREDIEVQRFVMLNMDAPHHTRLRKIISRGFTPRAVGRLHDELQERAQKIAAEAAAAGSGDFVEQVSCELPLQAIAGLLGVPQEDRGKLFHWSNEMTGNEDPEYAHIDPKASSAELIGYAMKMAEEKAKNPADDIVTQLIQADIDGEKLSDDEFGFFVVMLAVAGNETTRNSITQGMMAFAEHPDQWELYKKVRPETAADEIVRWATPVTAFQRTALRDYELSGVQIKKGQRVVMFYRSANFDEEVFQDPFTFNILRNPNPHVGFGGTGAHYCIGANLARMTINLIFNAVADHMPDLKPISAPERLRSGWLNGIKHWQVDYTGRCPVAH” the “soluble on expression in E. coli” value was “soluble”.
In the case of “MIEIKDKQLTGLRFIDLFAGLGGFRLALESCGAECVYSNEWDKYAQEVYEMNFGEKPEGDITQVNEKTIPDHDILCAGFPCQAFSISGKQKGFEDSRGTLFFDIARIVREKKPKVVFMENVKNFASHDNGNTLEVVKNTMNELDYSFHAKVLNALDYGIPQKRERIYMICFRNDLNIQNFQFPKPFELNTFVKDLLLPDSEVEHLVIDRKDLVMTNQEIEQTTPKTVRLGIVGKGGQGERIYSTRGIAIGLSAYGGGIFAKTGGYLVNGKTRKLHPRECARVMGYPDSYKVHPSTSQAYKQFGNSVVINVLQYIAYNIGSSLNFKPY”, the “soluble on expression in E. coli” value is reported as “soluble”.
In the case of “MGSDKIHHHHHHMIVKEINPHFEDYVFNWEQTYQFLVGGYGSSKSYHTALKIVLKLLKEKRTALVIREVFDTHRDSTFALFQEVIEELGLTKAVASLSSPLQLRFHNGSRIMFKGMDNPAKLKSVHNISLIWIEECSEVKYEGFKELIGRLRHPELKLHMICTTNPVGTSNWTYRHFFRDERKKRFVLDDSELYEKRTIVKGDTYYHHSTANDNLFLPESYVKQLDGLKEYDPDLYRIARKGRFGVNGIRVLPQFEVLPHDQVKKCIAAISKPIFRTGMDFGFEESYNAVVRLAVDPEKKYLYIYWEYYQNKMTDDRTAEELREFIETQELIKADSAEPKSIQYFRQQGFRMVGARKFPGSRLQYTKKVKRFKKIFCSDRCENVIYELETLTYAKDKNGALIEDEFTIDPHTLSAIWYALDDYEVADMKETAHKRMRPNRERRRS”, the “soluble on expression in E. coli” value is reported as “not soluble”.
For “MGSDKIHHHHHHMDTPINAPLRKLPIGIQSFEKLRSENFLYVDKTALIYRLAQAGNPCFLSRPRRFGKSLLLSSFEAYFQGKKELFRGLAIEKLEKEWLQYPVLHLSLNAEKYDSREGLIDILERQLRQWEELYRTGGEGITHSGRFMTVIRRACEQTGRRVVVLIDEYDKPLLRSFDSQELQHDFRETLTAFYTVLKDADPWLQFVFITGVTKFAQMGIFSNLNQLNDISFDLDYNTLCGMTRAEIEATFSPELEALAVKSNATCRQVMDRLTRQYDGYRFTKDEEFTSMYNPFSVLSALQKRSYGNYWFASGTPTFLVEMLQKTDFDLREMEGIEVNEASLSDDRADINNPIPMIYQSGYLTIKDYDERFRMYTLGFPNEEVKYGFLNFVSPFYTPIAQTDTSFYIGKFIRELESGDVDAFLTRLRCFFAGIPYDLNDRTERHYQTVFYLVFQLMGQFTETEVRSARGRADAVVKTPDYIYVFEFKLNDSAEAALRQIDEKGYLLPYQADGRKVVKVGVAFEKEERNIGEWMIGG”, the “soluble on expression in E. coli” value was “not soluble”.
In the case of “MGSDKIHHHHHHMIKNTIKKLIEHSIYTTFKLLSKLPNKNLIYFESFHGKQYSDNPKALYEYLTEHSDAQLIWGVKKGYEHIFQQYNVPYVTKFSMKWFLAMPRAKAWMINTRTPDWLYKSPRTTYLQTWHGTPLKKIGLDISNVKMLGTNTQNYQDGFKKESQRWDYLVSPNPYSTSIFQHAFHVSRDKILETGYPRNDKLSHKRNDTEYINGIKTRLNIPLDKKVIMYAPTWRDDEAIREGSYQFNVNFDIEALRQALDDDYVILLRMHYLVVTRIDEHDDFVKDVSDYEDISDLYLISDALVTDYSSVMFDFGVLKRPQIFYAYDLDKYGDELRGFYMDYKKELPGPIVENQTALIDALKQIDETANEYIEARTVFYQKFCSLEDGQASQRICQTIFK”, the “soluble on expression in E. coli” value is reported as “not soluble”.
In the case of “MRPVLLLCCLFLSATAQAEDCSPQTSVGSWCELPLAALHPTQQNVGLLQVEDDQAKLAGKKPKALERYLRKKEIPVVIGPGGRFYLTDRHHLSSALWRLDPKQGVPVKVIGRLPQASDFWEKMQENHWVWLHDARGAEIPPEALPDALAGLGDDPYRALAGYAEDENAFDKDRQSYFIEFHWARYFGERMHWRPISRATLPDDLKQALRLACEPAARELPGYRQDCPHKLAAALEHHHHHH”, the “soluble on expression in E. coli” value is reported as “not soluble”.
With “REGITKNPTKRIIKDVETVDYPEKLIVPYIDTVHDRIVLELFRGCTRGCRFCQAGMIYRPIREKSVKRLKEILDKLVKNTGYDEISLSSLSTSDYSKLSELTDYLVDEYASNNIGISLPSLRLDNFSMEIADKIQQVRKSGLTFAPEAGTQRLRDVINKGVTEEDLENATERAFEMGWNSVKLYFMIGLPTETYEDLDGIAKLAYKV” the “soluble on expression in E. coli” value was “not soluble”.
With “MLKEAIYHRPKDNYAYAYDEKTIHIRIRTKRDDVQSTTLIYGDPYEWKDGKWISSSTPMKKTGSTALFDYWFISIEPKFKRLRYGFELKNDTDTLIYAERGFFSTTPNDDVGNFFCFPFIHANDVFKAPSWIKDTVWYQIFPERFANGDHTLNPENTLPWGSAEPTPTNFFGGDFAGIIQNLDYLVKLGISGIYFTPIFKAHSNHKYDTIDYMEIDPQFGTKETFKELVQACHTHGIKVMLDAVFNHSGYFFDKFQDVLQNGEQSAYKEWFHIHEFPIRTEPLPNYDTFAFTPYMPKLNTAHPDVKEYLLEVGRYWVREFNIDGWRLDVANEVDHNFWREFRSEIKALNSEVYILGEIWHDALPWLQGDQFDAVMSYPVTNALLSYFANDSIKANEFMKQITESLHSYSMNVNEAAFHLLDSHDTPRILTTCNGDKNKLKLLYVFHLSFIGSPCIYYGDEIGMDGGMDPDCRKCMVWDTEEQDHTLFTHVQTLISLRKQYKAFGGHGTFQFIEANDEYNYISYTKTYEDETIFFVLNPTNSDITASLPLHVTGKKIINIYTNEEFSAEASVLQVTLPPYGFSILKW” the “soluble on expression in E. coli” value was “not soluble”.
In the case of “MGSDKIHHHHHHMKLNLAVFAYHLADYAPRLYDSEVHGLGIGDVRFIDRQETFLSESVYIGAWDKLQALIRPPSYVVCIGRDETTDRWLEKHGVKALILDSEVELNEVFERLQDIFQHYNRLESELLEAVLCKEPLNVLLNICAKFFANPTFITDAALCLVATCDNFAHPETDRAWQETIESGRSSSELLLLMKRKKLTNLLNTSRKAEFVNVGENYSKIICANYFDQEVRIATFTVSEAYTPLSPLQAGLVDHVAKLLTAEVRKQHKASSRYLFAIRSNISNLLHGQKIDGAILKTNFAHIGWTDQEDYRLLKIPLTAAELADGTAGHNRKIYESIFPHYVSLDLNEVLILVIRCARDTEADKRRFAELKKHLKNENAACGVSKTFHDFDMLGEEYKLANAALEIGSWKYPKEALYFYEDMMLEHLFSEGSRIFNLRSLCHDSVLRIAEHDQQNNSSLLQTLKVYLLQEKSLLAASQELHIHRNTLVYRLGKIEQISGLDLNSPLIRLQGILSCLILEYLNGLEEKAPD”, the “soluble on expression in E. coli” value is reported as “not soluble”.
With “EHAKQASSYIPLDRLSISYCRSSGPGGQNVNKVNSKAEVRFHLASADWIEEPVRQKIALTHKNKINKAGELVLTSESSRYQFRNLAECLQKIRDMIAEA” the “soluble on expression in E. coli” value was “soluble”.
In the case of “HMDIRTITSSDYEMVTSVLNEWWGGRQLKEKLPRLFFEHFQDTSFITSEHNSMTGFLIGFQSQSDPETAYIHFSGVHPDFRKMQIGKQLYDVFIETVKQRGCTRVKCVTSPVNKVSIAYHTKLGFDIEKGTKTVNGISVFANYDGPGQDRVLFVKNI”, the “soluble on expression in E. coli” value is reported as “soluble”.
In the case of “MTMNANIEVRLKSPAHPGGFIKHEIIEPLALSVSNAAEVLGVSRAALSALLNERAHLPPEMALRIEKAFGVSMDTLMRMQNSYDIAQTRKRAEEIKVAPFSGKPIESNSVV”, the “soluble on expression in E. coli” value is reported as “not soluble”.
In the case of “SMAAAAVVQIPAGATFLETFKKSFVDVPIDAEKGNAISTAEFLEAAESLTTMFDVLGSIAFSPVKTDMLGNVEKIRKRMLAAPLESQNIQDLVRNELKTKSHTATEGLLWLVRGLEFTCIALSKNIGSTEELADSFRGSYRVTLKPHHSFLVKPIFSAAMSACPYRKDFYAKLGDDEQKVQEELREYLVALDKIVNILKRFLESKEAKW”, the “soluble on expression in E. coli” value is reported as “soluble”.
